Measurements as given in article PMC7089733.

Molecular target: L7Ae;Nop5;fibrillarin L113K;V223E ((printed as Pf);(printed as Pf);(printed as Pf)) (UniProt Q8U160+Q8U4M1+Q8U4M2)
Experiment: NMR PRE + SAXS/SANS ensemble
Details: half-loaded mono-RNP, 50 mM NaPi, 500 mM NaCl, pH 6.6, 100% D2O (NMR), 55 C, SANS in 42%:58% D2O:H2O, substrate at 1.2-1.25 molar equivalents, scale: % [on,off] conformers

| Sequence | binding signal | binding signal (ddG vs substrate D' 0.86 +/- 0.55 kcal/mol) |
| --- | --- | --- |
| GCGAGCAAUGAUGAGUGAUGGGCGAACUGAGCUCGAAAGAGCAAUGAUGACGGAGGUGAUCACUGAGCUCGC / GCUUCGCCCAUCAC [st-sR26 + substrate D'] | 66 |  |
| GCGAGCAAUGAUGAGUGAUGGGCGAACUGAGCUCGAAAGAGCAAUGAUGACGGAGGUGAUCACUGAGCUCGC / GUAGAUCACCUCCG [st-sR26 + substrate D] |  | 34 |
